Experimental data reported in patent US20240350583A1, “COMPOSITION FOR PREVENTING OR TREATING FIBROTIC DISEASES, COMPRISING HAPLN1” (Chung Ang University Industry Academic Cooperation …, priority 2021, published 2024).
“Also recorded” adds a separate entry of the source.

What was measured:
[1] = test system: bleomycin-induced pulmonary fibrosis (BIPF); assay: Bleomycin-induced pulmonary fibrosis mouse model, prevention (inhalation from day 1); type: in vivo; conditions: for Ashcroft score (normal 0, control 6.25): nebulized 1 hour once daily for 10 days from 1 day after bleomycin
Description: The experimental animals used were 8-week-old female C57BL/6N (KBSI, Daejeon, Korea) mice, and were set as a normal control group (Normal, PBS) and two dose of administration groups (composition of the present disclosure including rhHAPLN1 protein). The water was changed every two days and the mice were allowed to eat ad libitum, and the mice were placed in one cage of four, and the temperature in the room was kept at 21° C. to 24° C. and the humidity at 40% to 60%, and the day and night cycles were 12 hours each.
To establish a bleomycin-induced pulmonary fibrosis (PF) model, 8-week-old female C57BL/6N mice were used, and divided into 4 groups (Normal, Control, 0.0005% (w/w) rhHAPLN1, 0.0015% (w/w) rhHAPLN1), with 4 mice per group, and the IPF disease induction method was referred to the paper by Liu et al. (Methods in Molecular Biology 2017, DOI: 10.1007/978-1-4939-7113-8_2) (see FIG. 12A). Administration of bleomycin (Bleomycin sulfate from Streptomyces verticillus. B8416; Sigma-Aldrich Co.) to induce idiopathic pulmonary fibrosis (IPF) was performed using a 1 ml-syringe and an oral dosing needle (Oral Zonde Needle 0.9×50 mm; 20 Guage) was used to anesthetize the patient and then carefully instillated orally intratracheally in a single 25 μl dose at a concentration of 2 U/kg, followed by nebulization with fresh 10 ml phosphate-buffered saline (1×PBS, pH 7.4; Gibco Co.) added dropwise to a nebulizer to generate nebulization and be freely inhaled.
Starting 1 day after bleomycin administration, the control was a mixture of 50 μl of a stock solution consisting of 20 mM Tris-HCl, 0.5 M NaCl, pH 8.0, 50% glycerol and 10 ml PBS (1×, pH 7.4, Gibco Co.) solution, while the two groups for the compositions of the present disclosure were treated with 50 μl of rhHAPLN1 stock solution at a rhHAPLN1 weight ratio concentration of 0.0005% (w/w), in other words, 5,000 ng/ml, and 0.0015% (w/w), in other words, 15,000 ng/ml, respectively, were mixed in 10 ml PBS (1×, pH 7.4, Gibco Co.) and administered to each group once a day for 1 hour by nebulization via the nebulizer described above. The weight of each experimental animal was measured every 2 days to confirm that there was no change in weight, and a mass dosing system and aerosol chamber (Data Science International Co.) were used to generate the mist. […]
Next, three tissue slides were prepared per mouse by cutting the middle portion of the left large lobe of the mouse, and three sections were photographed randomly on one slide, and then, for a total of nine sections, the stained darker part was distinguished from the unstained white part, and the area of the stained darker part was measured using Image J software, and each figure obtained was averaged to obtain an average value per mouse. […]

[2] = test system: human kidney renal tubule cell (Human Kidney 2, HK-2); assay: Fibrosis prevention in HK-2 cells (simultaneous TGFβ1 and drug), αSMA western blot; type: cell-based; conditions: rhHAPLN1 50 ng/ml simultaneously with TGF-β (5 ng/ml), 24 hours
Description: (1) Human kidney renal tubule cells (HK-2) were seeded (1.0×10^5 cells/well) in a 6-well plate according to the experimental scheme of FIG. 6A and incubated in RPMI 1640 Medium (11875-093, Gibco) including 10% FBS for 24 hours in an incubator at 37° C. 5% CO2.
(2) The plates were then washed several times with PBS and each well of the plate was simultaneously treated with TGF31 (5 ng/ml) and the composition of the present disclosure (rhHAPLN1 protein content of 0, 5, 10, 20, and 50 ng/ml) and pirfenidone 0.2 mg/mL (200 μg/mL) and incubated for 24 hours.
(3) Each sample was then washed several times with ice-cold PBS, treated with radioimmunoprecipitation assay (RIPA) lysis and extraction buffer (Thermo Scientific) including protease and phosphatase inhibitors, scraped with a scraper, and transferred to an E-tube.
(4) By centrifugation (12000 rpm, 20 minutes, 4° C.), only the supernatant was obtained, and bicinchoninic acid (BCA) assay was performed to obtain quantitative protein values.
(5) After quantification using the obtained quantitative value, cooking was performed at 100° C. for 3 minutes and then stored in a −20° C. refrigerator.
(6) Using a 4% to 15% precast acrylamide PAGE gel, proteins were loaded at 10 μg per lane and run (80V-20 minutes, 120V-1 hour 30 minutes). […]
(11) After washing three times with TBST for 10 minutes each, the samples were detected by Chemidoc.

B1: rhHAPLN1: recombinant human HAPLN1 protein of SEQ ID NO: 1 produced in CHO-K1 cells, stabilized in acetic acid buffer, sucrose, PS80, pH 5.0 (protein, listed as Homo sapiens)
chain: MKSLLLLVLISICWADHLSDNYTLDHDRAIHIQAENGPHLLVEAEQAKVFSHRGGNVTLPCKFYRDPTAFGSGIHKIRIKWTKLTSDYLKEVDVFVSMGYHKKTYGGYQGRVFLKGGSDSDASLVITDLTLEDYGRYKCEVIEGLEDDTVVVALDLQGVVFPYFPRLGRYNLNFHEAQQACLDQDAVIASFDQLYDAWRGGLDWCNAGWLSDGSVQYPITKPREPCGGQNTVPGVRNYGFWDKDKSRYDVFCFTSNFNGRFYYLIHPTKLTYDEAVQACLNDGAQIAKVGQIFAAWKILGYDRCDAGWLADGSVRYPISRPRRRCSPTEAAVRFVGFPDKKHKLYGVYCFRAYN
In the case of B1, the “Ashcroft score (normal 0, control 6.25)” value ([1]; composition 1, rhHAPLN1 0.0005% (w/w)) is reported as 5.25, the “Ashcroft score (normal 0, control 6.25)” value ([1]; composition 2, rhHAPLN1 0.0015% (w/w)) is reported as 0.5 and the “H&E lung tissue form (FIG. 12B)” value ([1]; rhHAPLN1 0.0015% (w/w)) is reported as “quite similar to that of the normal group”. The “average area of dark (fibrotic) H&E-stained lung area compared to control (FIG. 12C)” value ([1]; rhHAPLN1 0.0015% (w/w)) was “reduced to be quite close to the normal group”, the “fibrosis prevention (αSMA) compared to pirfenidone at 200 μg/mL (FIG. 6B, FIG. 6C)” value [2] was “superior fibrosis prevention action compared to pirfenidone; also recorded: significantly higher” and the “fibrosis prevention efficacy (αSMA) compared to composition that does not include rhHAPLN1 protein (FIG. 6C)” value [2] was “superior fibrosis prevention efficacy”.
